In the nanobody polyreactivity screen of Harvey et al. (2022):

Assay: yeast display, Sf9 membrane polyspecificity reagent, FACS + sequencing; frameworks hold sequencing errors
Procedure, shortened: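 Nanobodies from a synthetic yeast display library (Saccharomyces cerevisiae BJ5465), induced 36–48 hours with galactose, were stained 1 hour at 4 °C with 10% biotinylated, detergent-solubilized Sf9 membrane reagent, enriched on streptavidin microbeads, then FACS-sorted. Anti-HA (expression) and streptavidin (reagent binding) fluorescence set low and high (top ~1%) gates. Polyreactivity labels come from the gate of origin. Genes were colony-PCR amplified, MiSeq 2 × 250 sequenced and filtered by CDR length.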

Row | Sequence | polyreactivity (PSR sort gate)
1 | QVQLVESGGGLVQAGGSLRLSCAASGSIFTSNAMGWYRQAPGKERELVAAITSDGAITYADSVKGRFTISRDNAKNTVYLQMNSLKPEDTAVYYCATEIEYYVGSVADMGYWGQGTQVTVSS | low polyreactivity
2 | QVQLVESGGGLVQAGGSLRLSCAASGSIFTSYAMGWYRQAPGKERELVAAISRSGARTYYADSVKGRFTISRDNAKNTVYLLMNCLKPEDTAVYYCAAVHWRTTGGYDYWGQGTQVTVSS | high polyreactivity
3 | QVQLVESGGGLVQAGGSLRLSCAASGSIFTSYAMGWYRQAPGKERELVAAISSSGSTYYADSVKGRFTISRDNAKNTVYLQMNSLKPEDTAVYYCNADSRTAGLNSEYDYWGQGTQVTVSS | low polyreactivity
4 | QVQLVESGGGLVQAGGSLRLSCAASGSIFTTNTMGWYRQAPGKERELVAAISSGGGTHYADSVKGRFTISRDNAKNTVYLQMNSLKPEDTAVYYCDARSYYYEWFGDVAMYYWGQGTQVTVSS | low polyreactivity
5 | QVQLVESGGGLVQAGGSLRLSCAASGSIFTTYAMGWYRQAPGKERELVAAISRAGDTTYADSVKGRFTISRDNAKNTVYLQRNSLKPEDTAVYYWGQGTQVTVSS | low polyreactivity
6 | QVQLVESGGGLVQAGGSLRLSCAASGSIFTVNAMGWYRQAPGKERELVAAITFGGGRTYYADSVKGRFTISRDNAKNTVYLQMNSLKPEDTSVYYCAVSRKGLGSVEYWGQGTQVTVSS | low polyreactivity
7 | QVQLVESGGGLVQAGGSLRLSCAASGSIFTVYAMGWYRQAPGKERELVAAITRNGGRTYYADSVKGRFTISRDNAKNTVYLQMNSLKPEDTAVYYCAAPGLYSRLDYWGQGTQVTVSS | high polyreactivity
8 | QVQLVESGGGLVQAGGSLRLSCAASGSIFTVYAMGWYRQAPGKERELVATITTGGSTNYADSVKGRFTISRDNAKTTVYLQMNSLKPEDTAVYYCAATYWSWISLRFYWGQGTQVTVSS | low polyreactivity
9 | QVQLVESGGGLVQAGGSLRLSCAASGSIFTVYAMGWYRQAPGKESELVAGITRRGSTYYADSVKGRFTISRDNAKNTFYLLMNRLKPEDTAVYYCAASRWVLESSGRVNWYDYWGQVTQVTVSS | low polyreactivity
10 | QVQLVESGGGLVQAGGSLRLSCAASGSIFTWNGMGWYRQAPGKERELVAAISGSGGTTYADSVKGRFTISRDNAKNTVYLQMNSLKPEDTAVYYCARRVWVRDYPFGYARYGYWGQGTQVTVSS | low polyreactivity
11 | QVQLVESGGGLVQAGGSLRLSCAASGSIFTWYVMGWYRQAPGKERELVAAITSGGRTYYADSVKGRFTISRDNAKKTVYLQMNSLKPEDTAVYYCAADSIGRLWGYGYWGQGTQVTVSS | high polyreactivity
12 | QVQLVESGGGLVQAGGSLRLSCAASGSIFTYNAMGWYRQAPGKERELVAAISTSGGSTYYADSVKGRFTISRDNAKNTVYLQMNSLKPEDTAVYYCAAEYYVYPFWYGYWGQGTQVTVSS | high polyreactivity
13 | QVQLVESGGGLVQAGGSLRLSCAASGSIFTYYAMGRYRQAPGKDRQLVAAISSNGGSTYYADSVKGRFTISRDNAKNTVYLQMNSLKPEDTAVYYCATVVNTWYQNGYEYWGQGTQVTVSS | low polyreactivity
14 | QVQLVESGGGLVQAGGSLRLSCAASGSIFTYYAMGWYRQAPGKEMELVARIDWNGGSTRYADSVKGRFTISRDNAKNTVYLQMNSLKPEYTAVYYCAADWDYAPYFDPDLLDYWGQGTQVTVSS | low polyreactivity
15 | QVQLVESGGGLVQAGGSLRLSCAASGSIFTYYAMGWYRQAPGKERELVAAITSTGGSTYYADSVKGRFTISRDNAKNTVYLQMNSLKPEDTAVYYCATDYGYYDYWGQGTQVTVSS | low polyreactivity
16 | QVQLVESGGGLVQAGGSLRLSCAASGSIFTYYAMGWYRQAPGKERELVAGITRGGSTYYAESVKGRFTISRDNAKNTVYLQMNSLKPEDTAVYYCNARWVLFYTGDGQEHDYWGQGTQVTVSS | low polyreactivity
17 | QVQLVESGGGLVQAGGSLRLSCAASGSIFTYYDMGWYRQAPGKEREWVAGISRRGSTYYADSVKGRFTISRDNAKNTVYLQMNSLKPEDTAVYYCAADPWVGTLYPRVGYWGQGTQVTVSS | low polyreactivity
